# Results taken from patent US20250043019A1 (Janssen / Centocor, published 2025).
# Biological target: T1, human CD20 on the cell surface (human, UniProt P11836 1-297)
# T1 construct: whole, on cells; On B-lymphoma lines, primary B cells, K562 CD20 or HEK293 transfectants; also called MS4A1; B-lymphocyte antigen CD20
# T1 sequence (looked up): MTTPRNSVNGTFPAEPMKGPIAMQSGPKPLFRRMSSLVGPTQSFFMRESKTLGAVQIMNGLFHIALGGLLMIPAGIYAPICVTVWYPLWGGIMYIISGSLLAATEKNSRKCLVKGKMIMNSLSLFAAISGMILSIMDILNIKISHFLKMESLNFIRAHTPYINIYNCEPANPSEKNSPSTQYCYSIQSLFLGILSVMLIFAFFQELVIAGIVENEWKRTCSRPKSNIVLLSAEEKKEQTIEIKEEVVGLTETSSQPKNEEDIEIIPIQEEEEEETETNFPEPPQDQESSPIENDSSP
# Assay: cell-based binding on CARNAVAL cells
binder,measurement,value
CD20 binding arm of C923B169 tested as scFv (scFv) EIVLTQSPATLSLSPGERATLSCRASLSVSSMHWYQQKPGQAPRLLIYATSNLASGIPARFSGSGSGTDFTLTISSLEPEDFAVYYCQQWIFNPPTFGGGTKVEIKGGSEGKSSGSGSESKSTGGSQVQLVQSGAEVKKPGSSVKVSCKASGYTFSSYNMHWVRQAPGQGLEWMGAIYPGAGDTSYAQKFQGRVTITADESTSTAYMELSSLRSEDTAVYYCARSNYYGSSGWYFDVWGKGTTVTVSS,EC50,16 nM
